Results: article PMC10790359, “System for Self-excited Targeted Photodynamic Therapy Based on the Multimodal Protein DARP-NanoLuc-SOPP3” (Acta Naturae, 2023)

Target: T1, HER2 (human epidermal growth factor receptor type II) (human (endogenous in SKOV3.ip1), UniProt P04626 23-1255)
T1 construct: HER2, human epidermal growth factor receptor type II, on the surface of human ovarian adenocarcinoma SKOV3.ip1 / SKOV3.ip1-Kat cells; also called HER2 receptor; HER2 tumor marker; source: endogenous, on SKOV3.ip1 and SKOV3.ip1-Kat cells (HER2 overexpression)
Experiment: flow cytometry on cells; cells incubated with 300 nM DARP-NanoLuc-SOPP3-AF488 conjugate in complete growth medium for 10 min at 37°C, washed thrice with phosphate-buffered saline; HER2-positive SKOV3.ip1-Kat cells; control: unlabelled cells
Details: one partner purified

B1: DARP-NanoLuc-SOPP3 (designed binder)
chain: MDLGKKLLEAARAGQDDEVRILMANGADVNAHDFYGITPLHLAANFGHLEIVEVLLKHGADVNAFDYDNTPLHLAADAGHLEIVEVLLKYGADVNASDRDGHTPLHLAAREGHLEIVEVLLKNGADVNAQDKFGKTAFDISIDNGNEDLAEILQEFPKPSTPPGSSGGAMVFTLEDFVGDWRQTAGYNLDQVLEQGGVSSLFQNLGVSVTPIQRIVLSGENGLKIDIHVIIPYEGLSGDQMGQIEKIFKVVYPVDDHHFKVILHYGTLVIDGVTPNMIDYFGRPYEGIAVFDGKKITVTGTLWNGNKIIDERLINPDGSLLFRVTINGVTGWRLCERILAGGGGSGSEKSFVITDPRLPDNPIIFASDGFLELTEYSREEILGRNGRFLQGPETDQATVQKIRDAIRDQREITVQLINYTKSGKKFLNLLNLQPIRDQKGELQAFIGVQVDGKLAAALE
modifications: conjugated with N-hydroxysuccinimide esters of dyes (AF488 or Cy5.5) for flow cytometry and confocal microscopy; legends and results call the green conjugate FITC; labelled residues not stated
notes: DARPin_9-29, HER2-specific targeting module; NanoLuc luciferase (engineered), amplified from plasmid pNL1.1.CMV (Promega); SOPP3 phototoxic flavoprotein (a miniSOG analogue, engineered), amplified from pET24-SOPP3; vector-derived residues between SOPP3 and the C-terminal HHHHHH of the printed chain; cytotoxicity assays used the protein without a dye; also called DARPin-NanoLuc-SOPP3; …
  fold shift in the median fluorescence of conjugate-treated cells compared to the control: ~100 fold
